Laboratory results taken from PMC8600091.

Columns and labels:
[1] = molecular target: MBD2 MBD R188K (Homo sapiens, UniProt Q9UBB5 143-220, R188K); assay: ITC
[2] = molecular target: MBD2 MBD R166K/R188K (Homo sapiens, UniProt Q9UBB5 143-220, R166K;R188K); assay: ITC
Chain of MBD2 MBD R166K/R188K (Q9UBB5 143-220 R166K/R188K): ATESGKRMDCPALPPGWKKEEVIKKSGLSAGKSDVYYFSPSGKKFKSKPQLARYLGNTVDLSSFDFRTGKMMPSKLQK

Chain of MBD2 MBD R188K (Q9UBB5 143-220 R188K): as the sequence (Q9UBB5 143-220 R166K/R188K) above, with K24R counted along it

B1: mCG dsDNA 12mer (dsDNA)
DNA 1: GCCAACGTTGGC
DNA 2: GCCAACGTTGGC
modifications: 5-methyl-C at position 6 of both strands
B1 was tested, and the Kd [1] was 7.5 ± 0.4 µM and the binding result [2] was “no binding”.
